Here are results for two substances from patent US20170218072A1.

pKd: −log10 of the molar value.

Experiment [1] addresses HER2ex. (UniProt P04626). Kind of experiment: SPR (Biacore X100); single cycle method, 0.05% Tween20-PBS, immobilized full-Ab. In general terms: In SPR one partner is held on a chip, and binding of the other changes the refractive index at the surface.
For experiment [2], the target named is HER2ex. (UniProt P04626). Kind of experiment: SPR (Biacore X100); multi-cycle method, 0.05% Tween20-PBS. The note with it: scFv.
Experiment [3] addresses HER2ex. (UniProt P04626). The experiment can be described thus: SPR (Biacore X100); multi-cycle method, 0.005% Tween20-PBS. The note with it: scFv.

Trastuzumab full-body Ab: the pKd (in general, −log10 of the Kd, conventionally taken in molar units) with HER2ex. [1] is 8.45.

With Trastuzumab scFv, the negative-log Kd (pKd) with HER2ex. [2] was 10.02; with HER2ex. [3], 9.59.
